Earlier results in publication PMC10742151.
Like-named read-outs stand apart in the source and are kept apart here.

What was measured:
[1] = biological target: CA125 (ovarian cancer biomarker antigen) (UniProt Q8WXI7); settings: AFM chip (DSP-activated APTES mica) with immobilized aptamer incubated in CA125 solution, then washed with 0.01% Emulgen 913; buffer, salt, pH and temperature …
[2] = biological target: CA125 (ovarian cancer biomarker antigen) (UniProt Q8WXI7); settings: AFM chip (DSP-activated APTES mica) with immobilized aptamer incubated in CA125 solution, then washed with 0.01% Emulgen 913; buffer, salt, pH and temperature …; remark: listed apart in the source

Row | Substance | Kd [1] [µM] | Kd [2] [µM]
1 | TAGGGAAGAGAAGGACATATGATGATCAACAACACAAGGGGGGGGGTATCTAGTTGACTAGTACATGACCACTTGA [apta#2 (apta#2.43)] | 0.239 | 
2 | TAGGGAAGAGAAGGACATATGATTTTAGGGAAGAGAAGGACTTTTATGCCGCCTTGACTAGTACATGACCACTTGA [apta#1 (apta#2.26)] | 0.166 | 
3 | apta#3 (ATW0055, BasePair Biotechnologies) |  | 0.0338
